Laboratory results reported in patent US20180057536.

What was measured:
[1] = test system: T1, Selective delivery molecule 10 (SDM-10)
T1 sequence: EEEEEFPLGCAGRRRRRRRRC

[2] = test system: T2, Selective delivery molecule 9 (SDM-9)
T2 sequence: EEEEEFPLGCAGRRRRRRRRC

Substance | Cy5 fluorescence enhancement after protease cleavage (dequenching), 1 uM SDM-10 in TCNB buffer [1] | fluorescent cleavage fragment on polyacrylamide gel (1 nM MMP-9, 1 uM SDM-10, 24 h, 37 C) [1] | Cy5 donor emission after protease cleavage (FRET disruption), 1 uM SDM-9 in TCNB buffer [2] | Cy7 acceptor emission after protease cleavage (FRET disruption), 1 uM SDM-9 in TCNB buffer [2]
MMP-9 | the fluorescence was enhanced >100-fold upon protease cleavage | After cleavage by MMP-9 the fragment containing the fluorophore is dequenched (becoming highly fluorescent) and runs near the bottom of the gel |  | 
matrix metalloproteinase-2 (MMP-2) |  |  | a large 8-fold increase the Cy5 donor emission | 2-fold decrease in the Cy7 emission
